From US20210093714A1, “Combination and method for inhibiting the cancer cells” (NATIONAL TAIWAN UNIVERSITY, priority 2013, published 2021) come the findings set out here.

Assay [1] has as its system mutated-type EGFR (L858R). The assay can be described thus: Western blot of EGFR expression, H1299 mutated-type EGFR. The class given is cell-based, human. The following applies: H1299 (single mutation point, L858R); 0 minutes to 4 hours; FIG. 7. As for the experimental part:
(§1) Proteins ([…]) were separated by SDS-PAGE and transferred to a polyvinylidene difluoride membrane (Immobilon-P membrane; Millipore) by electrotransfer. The blot was blocked in a solution of 5% skim milk and 0.1% Tween 20 in PBS. Thereafter, membrane-bound proteins were probed with the following primary antibodies: CCN2, DAPK, phosphorylated ERK, ERK-1, phosphorylated Akt, Akt, TrkA, phosphorylated-Src, Src, b-actin, a-tubulin (Santa Cruz Biotechnology), p-EGFR, and EGFR (Cell Signaling Technology, Danvers, MA, USA). The membrane was washed and then incubated with HRP-conjugated secondary antibodies for 30 min. Enhanced chemiluminescence reagents (Amersham Pharmacia Biotech, Piscataway, N.J., USA) were employed to depict the protein bands on membranes. The light was captured on Kodak X-Omat Blue autoradiography film (PerkinElmer Life Sciences, Boston, Mass., USA).
(§2) First, the effect of rCCN2 on the wild-type EGFR […] lung adenocarcinoma cell line, the mutated-type EGFR H1299 lung adenocarcinoma cell line, and the mutated-type EGFR H1975 lung adenocarcinoma cell line was observed by western blot analysis, the results shown in FIG. 7(Cell lysates of H1299 transfectants or H1975 cells were immunoblotted with anti-EGFR).
In general terms: A western blot detects proteins with antibodies after separation by electrophoresis.

Assay [2] concerns EGFR. The assay can be described thus: Immunoprecipitation and in vitro binding assay of CCN2 and EGFR. Set-up: species or system human. The note with it: A549; FIG. 2C. As for the experimental part: CCN2 transfectants were seeded overnight and incubated in serum-free media for 24 h. For immunoprecipitations, cells were lysed in an RIPA buffer (150 mM NaCl, 50 mM Tris-base, 5 mM EDTA, 1% NP-40, and 0.25% deoxycholate; pH 7.4). Protein concentrations were determined using the BCA protein assay kit (Pierce, Rockford, Ill., USA). Lysate was incubated for 2 h at 4[…] with gentle rotation with rabbit polyclonal antibodies for human EGFR, CCN2, or Src immobilized onto protein A—sepharose beads (Santa Cruz Biotechnology, Santa Cruz, Calif., USA). Beads were washed twice with an IP buffer (137 mM NaCl, 2.7 mM KCl, 1 mM MgCl2, 1 mM CaCl2, 1% NP-40, 10% glycerol, 1 mg/ml bovine serum albumin, and 20 mM Tris; pH 8.0), boiled in a sodium dodecyl sulfate-polyacrylamide gel electrophoresis (SDS-PAGE) sample buffer, and centrifuged (12000×g, 4° C. for 15 min).
The recombinant proteins rCCN2 (BioVendor Com. Heidelberg, Germany), rEGFR, and rEGF (R&D Techne Corporation) ([…]) were added in binding buffer (50 mM sodium phosphate, pH 7.5, 500 mM NaCl, and I% Nonidet P-40) and incubated with gentle rotation at 4° C. for 2 h. Thereafter, crosslinks were reversed by boiling in an SDS-PAGE sample buffer (containing 0.1M dithiothreitol (DTT)) before loading on SDS-PAGE gels for immunoblotting analysis. […]

Assay [3] relates to mutated-type EGFR (L858R and T790M). The assay can be described thus: Western blot of EGFR expression, H1975. The class given is cell-based, human. The note with it: 0 to 4 hours, FIG. 7. As for the experimental part:
as §1, §2

For assay [4], the system named is lung adenocarcinoma cell line, CL1-5. The assay can be described thus: Anoikis assay (DNA fragmentation). The class given is cell-based, human. The note with it: FIG. 5A. From the text:
This embodiment focuses on whether CCN2 can induce anoikis in lung adenocarcinoma cells in vitro and in vivo. At first, CCN2 induces anoikis which is induced by CCN2 in lung adenocarcinoma cells in vitro was observed by anoikis assay, the results shown in FIGS. 5A to 5C.

The next assay has as its system β-pix/c-Cbl complex. The assay can be described thus: Immunoprecipitation/western blot of β-pix/c-Cbl complex and β-pix phosphorylation. The format is cell-based, human. The following applies: CL1-5; 0 to 60 minutes; FIG. 4G. Here is the method: as §1
(§3) CCN2 transfectants were seeded overnight and incubated in serum-free media for 24 h. For immunoprecipitations, cells were lysed in an RIPA buffer (150 mM NaCl, 50 mM Tris-base, 5 mM EDTA, 1% NP-40, and 0.25% deoxycholate; pH 7.4). Protein concentrations were determined using the BCA protein assay kit (Pierce, Rockford, Ill., USA). […]

Assay [5] concerns the target T1, Epidermal growth factor receptor (EGFR) (human, UniProt P00533 25-1210).
T1 construct: whole, on cells; FACS and immunoprecipitation used EGFR in or on cells
The assay can be described thus: FACS on CL1-5 and A549 cells (legend of FIG. 2B). As for the experimental part: After washing, cells were stained with an FITC-labelled goat anti-rabbit secondary antibody (Santa Cruz Biotechnology) for 30 min in the dark. Analysis was then conducted with an FACS Calibur cytometer (Collaborative Biomedical, BD Biosciences).

In assay [6] the test system is EGFR. The assay can be described thus: Western blot of EGFR expression in PC9/WT and PC9/IR. The format is cell-based. The note with it: 100 ng/mL rCCN2, 0 to 12 hours, FIG. 8C. Here is the method: as §1
Another assay concerns wild-type EGFR. The assay can be described thus: Western blot of EGFR expression, H1299 wild-type EGFR. The following applies: H1299 lung adenocarcinoma cell lines (wild-type EGFR); 0 minutes to 4 hours; FIG. 7. The format is cell-based, human. Here is the method:
as §1, §2

Assay [7] concerns the target T2, EGFR (Homo sapiens, UniProt P00533).
T2 construct: endogenous in cells; host or cells: CL1-5 and A549 human lung adenocarcinoma cell lines
The assay can be described thus: Western blot of EGFR ubiquitination. The class given is cell-based. The note with it: CL1-5; FIG. 4C. As for the experimental part: as §1, §3

B1: Connective tissue growth factor (CCN2), wild-type full length (ligand, human, UniProt P29279 27-349, looked up)
chain: QNCSGPCRCPDEPAPRCPAGVSLVLDGCGCCRVCAKQLGELCTERDPCDPHKGLFCHFGSPANRKIGVCTAKDGAPCIFGGTVYRSGESFQSSCKYQCTCLDGAVGCMPLCSMDVRLPSPDCPFPRRVKLPGKCCEEWVCDEPKDQTVVGPALAAYRLEDTFGPDPTMIRANCLVQTTEWSACSKTCGMGISTRVTNDNASCRLEKQSRLCMVRPCEADLEENIKKGKKCIRTPKISKPIKFELSGCTSMKTYRAKFCGVCTDGRCCTPHRTTTLPVEFKCPDGEVMKKNMMFIKTCACHYNCPGDNDIFESLYYRKMYGDMA
notes: also called Recombinant CCN2; exogenous CCN2
Regarding B1, the “expression of EGFR” value is on record as “inhibit the expression of EGFR more significantly” in [1]; “inhibit the expression of EGFR more significantly” in assay [3]; “suppressed more significantly” in the assay with EGFR [6] (attached PC9/IR); “suppressed more significantly” in the assay on EGFR [6] (attached PC9/WT); “inhibit the expression of EGFR more significantly” with wild-type EGFR. For the same molecule, in the assay with EGFR [2], the “physical association between CCN2 and EGFR” value is reported as “there is a physically association”. The DNA fragmentation result in assay [4] (attached CL1-5, rCCN2 0, 20, 100, 200 ng/mL) is given as “no obvious difference”; in assay [4] (suspended CL1-5, rCCN2 with higher concentration), “increased”. Also, the “formation of β-pix/c-Cbl complex” value in the assay with β-pix/c-Cbl complex is reported as “gradually reduce the formation of β-pixie-Chi complex”. In addition, the β-pix phosphorylation entry in the assay on β-pix/c-Cbl complex is listed as “reduces β-pix phosphorylation”. In addition, in assay [5], the binding result is listed as “binds”. The EGFR ubiquitination degree result in the assay with EGFR [7] is given as “increase the EGFR ubiquitination degree”.
